Experimental data from patent CN115710309A (INST PASTEUR SHANGHAI CAS, dated 2023).

Legend:
Test in all cases: cell-based or functional assay
[1] = biological target: SARS-CoV-2 B.1.351突变株S蛋白 (假病毒) (SARS-CoV-2, UniProt P0DTC2 14-1273)
[2] = biological target: SARS-CoV-2 B.1.617.1突变株S蛋白 (假病毒) (SARS-CoV-2, UniProt P0DTC2 14-1273)
[3] = biological target: SARS-CoV-2 B.1.617.2突变株S蛋白 (假病毒) (SARS-CoV-2, UniProt P0DTC2 14-1273)

Binder	假病毒中和 IC50 [1] [ng/mL]	假病毒中和 IC50 [2] [ng/mL]	假病毒中和 IC50 [3] [ng/mL]
单抗2G3 (antibody) heavy: QVQLQQPGAELVKPGASVKMSCKASGYTFTTYTIHWLRQTPGQGLEWIGAIYPGIGDTSYNQSFKGKATLTADKSSSTAYMQLSSLTSEDSAVYYCARDGNYAPFTYWGQGTLVTVSAAKTTPPSVYPLAPGSAAQTNSMVTLGCLVKGYFPEPVTVTWNSGSLSSGVHTFPAVLQSDLYTLSSSVTVPSSTWPSETVTCNVAHPASSTKVDKKIVPRDCGCKPCICTVPEVSSVFIFPPKPKDVLTITLTPKVTCVVVDISKDDPEVQFSWFVDDVEVHTAQTQPREEQFNSTFRSVSELPIMHQDWLNGKEFKCRVNSAAFPAPIEKTISKTKGRPKAPQVYTIPPPKEQMAKDKVSLTCMITDFFPEDITVEWQWNGQPAENYKNTQPIMDTDGSYFVYSKLNVQKSNWEAGNTFTCSVLHEGLHNHHTEKSLSHSPGK light: DIVMSQSPSSLAVSVGEKVTMSCKSSQSLLYSNNQKNYLAWYQQKPGQSPKLLIYWTSTRESGVPDRFTGSGSGTDFTLTINSVKAEDLAVYYCQQYYRYPLTVGAGTKLELKRADAAPTVSIFPPSSEQLTSGGASVVCFLNNFYPKDINVKWKIDGSERQNGVLNSWTDQDSKDSTYSMSSTLTLTKDEYERHNSYTCEATHKTSTSPIVKSFNRNEC	4	1	84
单抗8D3 (antibody, V domains shown) VH: EVQLQQSGPELVKPGASVKISCKTSGYTFTEYTMYWVKQSHGKSLEWIGGINPNIGDTSYNQNFKGKATLTVDRSSSTAYMELRSLTSEDSAVYYCARDGYPYYYALDHWGQGTSVTVSS VL: DIVMTQSQKFMSTSVGDRVSVTCKASQNVGTNVAWYQQKPGQSPKALIYSTSYRYSGVPDRFTGSGSGTDFTLTISNVQSEDLAEYFCQQYNSYPYTFGGGTKLEIKR	6	2	8
